Reference: patent US20040259176A1, “Structural basis for the guanine nucleotide-binding activity of tissue transglutaminase and its regulation of transamidation activity” (priority 2003, published 2004)

Assays:
Assay type in all cases: cell-based, human
[1] = tested on: SKBR3 cells; assay: Nuclear condensation or blebbing assay (doxorubicin-induced apoptosis); conditions: SKBR3 cells stimulated with EGF (100 ng/ml) for 2 days prior to doxorubicin; FIG. 11B
Description: FIGS. 1A-D illustrate that the protective effect of EGF from doxorubicin-induced apoptosis is blocked by MDC in SKBR3 cells. In FIG. 11A, nearly confluent cultures of SKBR3 and MDAMB231 cells were placed in low serum medium. The following day, the cells were exposed to low serum medium +/−0.25 μM doxorubicin (Dox) for the times indicated and subsequently lysed. The presence of the activated form of caspase 3 (cleaved caspase 3) and actin (actin) in the cell extracts was assessed by Western blot analysis. In FIG. 11B, SKBR3 and MDAMB231 cells were maintained in low serum medium (0) or treated with 10 μM MDC (MDC) for 1.5 days. […] All cell cultures were then treated with +/−0.25 μM doxorubicin (Dox) for about 1 day and the cells were scored for programmed cell death as described in Example 13. […]
NIH3T3 cells were grown in Dulbecco's modified Eagle's medium containing 10% calf serum and 100 units/ml penicillin. […] Protein concentrations were determined using the Bio-Rad DC protein assay.
Cells were seeded in 6-well dishes and grown in complete medium for 2 days. […] The cultures were then incubated with fresh medium containing RA, EGF, and MDC and +/−0.2 μM doxorubicin for an additional 1.5 days and were fixed and stained with 4,6-diamidino-2-phenylindole (2 μg/ml) for viewing by fluorescence microscopy. […]

[2] = tested on: tissue transglutaminase (TG); assay: TG expression by Western blot in SKBR3 cells; conditions: 5 μM RA or 100 ng/ml EGF for 2 days, FIG. 9A
Description: Cells were grown for 2 days in complete media and subsequently placed in low serum. The following day, cells were left untreated (0), treated with 5 μM RA (RA), 100 ng/ml EGF (EGF), or co-treated with 5 μM RA and 100 ng/ml EGF (RA/EGF) for 2 days and then lysed. In FIG. 9A, the cell extracts were used to determine TG GTP-binding activities (GTP-TGase) using an affinity-labeling assay with radioactive GTP as outlined in Example 11. Western blot analysis using TG and actin antibodies was performed to assess the expression levels of each of these proteins (TGase and actin). In FIG. 9B, the same cell lysates were assayed for TG transamidation activities as determined by the incorporation of 5-(biotin-amido) pentylamine into proteins as described in Example 12. The experiments were conducted in triplicate, quantitated, and the values from each experiment were averaged together and plotted. In FIG. 9C, SKBR3 cells were seeded at 1×10^5 cells/well and grown in low serum medium +/−5 μM RA and +/−100 ng/ml EGF for the times indicated and then counted. The results from three independent growth assays were averaged together and plotted. […]
NIH3T3 cells were grown in Dulbecco's modified Eagle's medium containing 10% calf serum and 100 units/ml penicillin. […] Protein concentrations were determined using the Bio-Rad DC protein assay. […]

[3] = tested on: tissue transglutaminase (TG); assay: TG GTP-binding activity by photoaffinity labeling with [α-32P]GTP in SKBR3 cell lysates; conditions: SKBR3 cells, 5 μM RA or 100 ng/ml EGF for 2 days; FIG. 9A
Description: (§1) Cells were grown for 2 days in complete media and subsequently placed in low serum. The following day, cells were left untreated (0), treated with 5 μM RA (RA), 100 ng/ml EGF (EGF), or co-treated with 5 μM RA and 100 ng/ml EGF (RA/EGF) for 2 days and then lysed. In FIG. 9A, the cell extracts were used to determine TG GTP-binding activities (GTP-TGase) using an affinity-labeling assay with radioactive GTP as outlined in Example 11. Western blot analysis using TG and actin antibodies was performed to assess the expression levels of each of these proteins (TGase and actin). In FIG. 9B, the same cell lysates were assayed for TG transamidation activities as determined by the incorporation of 5-(biotin-amido) pentylamine into proteins as described in Example 12. The experiments were conducted in triplicate, quantitated, and the values from each experiment were averaged together and plotted. In FIG. 9C, SKBR3 cells were seeded at 1×10^5 cells/well and grown in low serum medium +/−5 μM RA and +/−100 ng/ml EGF for the times indicated and then counted. The results from three independent growth assays were averaged together and plotted.
Photoaffinity labeling of TG was performed by incubating whole cell lysates with 5 μCi of [α-^32P]GTP in 50 mM Tris-HCl, pH 7.4, 2 mM EGTA, 1 mM DTT, 20% (w/v) glycerol, 100 mM NaCl, and 500 μM AMP-PNP for 10 minutes at room temperature. […]

[4] = tested on: tissue transglutaminase (TG); assay: TG transamidation assay (incorporation of 5-(biotin-amido) pentylamine) in SKBR3 cell extracts; conditions: SKBR3 cells, EGF compared with RA; FIG. 9A-B
Description: as §1
TG transamidation assays were performed as previously described with slight modifications. 15 μg of whole cell extracts were incubated in a buffer containing 2 mM 5-(biotin-amido) pentylamine, 40 mM CaCl2, and 40 mM DTT for 20 minutes. […]

[5] = tested on: SKBR3 cells; assay: Cell growth assay; conditions: low serum medium, 5 μM RA or 100 ng/ml EGF, up to 6 days; FIG. 9C
Description: as §1
Cells were seeded at 1×10^5 cells/well and grown in medium containing 0.5% serum +/−5 μM RA and +/−100 ng/ml EGF. Every 2 days the medium was changed. At 0, 2, 4, and 6 days of treatment, the cells were collected and counted.

[6] = tested on: tissue transglutaminase (TG); assay: TG expression and activation in MDAMB231 cells (Western blot, GTP-binding, transamidation); conditions: growth factor (EGF) stimulation, FIG. 9A-B
Description: as §1
Total cell lysates from each sample were combined with Laemmli sample buffer, boiled, and subjected to SDS-polyacrylamide gel electrophoresis (PAGE). […]

B1: EGF: epidermal growth factor, a known mitogen and survival factor (protein, UniProt P01133 23-1207, looked up)
Pro-epidermal growth factor: PQHWSCPEGTLAGNGNSTCVGPAPFLIFSHGNSIFRIDTEGTNYEQLVVDAGVSVIMDFHYNEKRIYWVDLERQLLQRVFLNGSRQERVCNIEKNVSGMAINWINEEVIWSNQQEGIITVTDMKGNNSHILLSALKYPANVAVDPVERFIFWSSEVAGSLYRADLDGVGVKALLETSEKITAVSLDVLDKRLFWIQYNREGSNSLICSCDYDGGSVHISKHPTQHNLFAMSLFGDRIFYSTWKMKTIWIANKHTGKDMVRINLHSSFVPLGELKVVHPLAQPKAEDDTWEPEQKLCKLRKGNCSSTVCGQDLQSHLCMCAEGYALSRDRKYCEDVNECAFWNHGCTLGCKNTPGSYYCTCPVGFVLLPDGKRCHQLVSCPRNVSECSHDCVLTSEGPLCFCPEGSVLERDGKTCSGCSSPDNGGCSQLCVPLSPVSWECDCFPGYDLQLDEKSCAASGPQPFLLFANSQDIRHMHFDGTDYGTLLSQQMGMVYALDHDPVENKIYFAHTALKWIERANMDGSQRERLIEEGVDVPEGLAVDWIGRRFYWTDRGKSLIGRSDLNGKRSKIITKENISQPRGIAVHPMAKRLFWTDTGINPRIESSSLQGLGRLVIASSDLIWPSGITIDFLTDKLYWCDAKQSVIEMANLDGSKRRRLTQNDVGHPFAVAVFEDYVWFSDWAMPSVMRVNKRTGKDRVRLQGSMLKPSSLVVVHPLAKPGADPCLYQNGGCEHICKKRLGTAWCSCREGFMKASDGKTCLALDGHQLLAGGEVDLKNQVTPLDILSKTRVSEDNITESQHMLVAEIMVSDQDDCAPVGCSMYARCISEGEDATCQCLKGFAGDGKLCSDIDECEMGVPVCPPASSKCINTEGGYVCRCSEGYQGDGIHCLDIDECQLGEHSCGENASCTNTEGGYTCMCAGRLSEPGLICPDSTPPPHLREDDHHYSVRNSDSECPLSHDGYCLHDGVCMYIEALDKYACNCVVGYIGERCQYRDLKWWELRHAGHGQQQKVIVVAVCVVVLVMLLLLSLWGAHYYRTQKLLSKNPKNPYEESSRDVRSRRPADTEDGMSSCPQPWFVVIKEHQDLKNGGQPVAGEDGQAADGSMQPTSWRQEPQLCGMGTEQGCWIPVSSDKGSCPQVMERSFHMPSYGTQTLEGGVEKPHSLLSANPLWQQRALDPPHQMELTQ
modifications: Pro-epidermal growth factor
[1]
  reduction in the rate of apoptosis: 50%
[2]
  TG expression: up-regulated TG expression
[3]
  TG GTP-binding activity: increased GTP-binding
[4]
  GTP-binding and enzymatic (transamidation) activity of TG: more effective than RA
[5]
  growth of SKBR3 cells: did not impede the growth
[6]
  constitutive level of TG expression or activation: did not alter the constitutive level of TG expression or activation
